Common to all, as to assay: ITC
For orientation: ITC needs no label: the signal is the heat of the interaction.

In series [1] the target is Jun bZIP R263A;Fos bZIP R155A (human;human, UniProt P05412;P01100 252-315;137-200, R263A|R155A).
In series [2] the target is Jun bZIP R263A;Fos bZIP K153A (human;human, UniProt P05412;P01100 252-315;137-200, R263A|K153A).
The target of series [3] is Jun bZIP R272A;Fos bZIP K153A (human;human, UniProt P05412;P01100 252-315;137-200, R272A|K153A).
In series [4] the target is Jun bZIP K268A;Fos bZIP R155A (human;human, UniProt P05412;P01100 252-315;137-200, K268A|R155A).
The target of series [5] is Jun bZIP K268A;Fos bZIP R158A (human;human, UniProt P05412;P01100 252-315;137-200, K268A|R158A).
Series [6] concerns the target Jun bZIP K258A;Fos bZIP R146A (human;human, UniProt P05412;P01100 252-315;137-200, K258A|R146A).
For series [7], the target named is Jun bZIP R272A;Fos bZIP K148A (human;human, UniProt P05412;P01100 252-315;137-200, R272A|K148A).
The target of series [8] is Jun bZIP K268A;Fos bZIP K148A (human;human, UniProt P05412;P01100 252-315;137-200, K268A|K148A).
The target of the next series is Jun-Jun bZIP K258A (human, UniProt P05412 252-315, K258A).
The target in series [9] is Jun bZIP K273A;Fos bZIP K148A (human;human, UniProt P05412;P01100 252-315;137-200, K273A|K148A).
Series [10] addresses Jun bZIP R272A;Fos bZIP R158A (human;human, UniProt P05412;P01100 252-315;137-200, R272A|R158A).
A further series deals with Jun-Jun bZIP K273A (human, UniProt P05412 252-315, K273A).
The target of series [11] is Jun bZIP K273A;Fos bZIP K153A (human;human, UniProt P05412;P01100 252-315;137-200, K273A|K153A).
Series [12] addresses Jun bZIP K258A;Fos bZIP R155A (human;human, UniProt P05412;P01100 252-315;137-200, K258A|R155A).
Series [13] concerns the target Jun bZIP K268A;Fos bZIP R146A (human;human, UniProt P05412;P01100 252-315;137-200, K268A|R146A).
The target of series [14] is Jun bZIP R263A;Fos bZIP R157A (human;human, UniProt P05412;P01100 252-315;137-200, R263A|R157A).
Series [15] has as its target Jun bZIP R270A;Fos bZIP R157A (human;human, UniProt P05412;P01100 252-315;137-200, R270A|R157A).

Chain of Jun bZIP R272A;Fos bZIP K153A (P05412 252-315 R272A, chain 1 of 2): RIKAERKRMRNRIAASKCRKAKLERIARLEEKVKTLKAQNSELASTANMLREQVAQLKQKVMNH
Chain of Jun bZIP R272A;Fos bZIP K153A (P01100 137-200 K153A, chain 2 of 2): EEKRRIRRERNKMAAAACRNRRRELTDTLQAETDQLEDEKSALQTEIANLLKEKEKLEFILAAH
Chain of Jun bZIP R272A;Fos bZIP R158A (P05412 252-315 R272A, chain 1 of 2): as the sequence (P05412 252-315 R272A, chain 1 of 2) above
Chain of Jun bZIP R272A;Fos bZIP R158A (P01100 137-200 R158A, chain 2 of 2): as the sequence (P01100 137-200 K153A, chain 2 of 2) above, with A17K, R22A counted along it
Chain of Jun bZIP R272A;Fos bZIP K148A (P05412 252-315 R272A, chain 1 of 2): as the sequence (P05412 252-315 R272A, chain 1 of 2) above
Chain of Jun bZIP R272A;Fos bZIP K148A (P01100 137-200 K148A, chain 2 of 2): as the sequence (P01100 137-200 K153A, chain 2 of 2) above, with K12A, A17K counted along it
Chain of Jun bZIP R270A;Fos bZIP R157A (P05412 252-315 R270A, chain 1 of 2): as the sequence (P05412 252-315 R272A, chain 1 of 2) above, with R19A, A21R counted along it
Chain of Jun bZIP R270A;Fos bZIP R157A (P01100 137-200 R157A, chain 2 of 2): as the sequence (P01100 137-200 K153A, chain 2 of 2) above, with A17K, R21A counted along it
Chain of Jun bZIP K258A;Fos bZIP R155A (P05412 252-315 K258A, chain 1 of 2): as the sequence (P05412 252-315 R272A, chain 1 of 2) above, with K7A, A21R counted along it
Chain of Jun bZIP K258A;Fos bZIP R155A (P01100 137-200 R155A, chain 2 of 2): as the sequence (P01100 137-200 K153A, chain 2 of 2) above, with A17K, R19A counted along it
Chain of Jun-Jun bZIP K258A (P05412 252-315 K258A): as the sequence (P05412 252-315 R272A, chain 1 of 2) above, with K7A, A21R counted along it
Chain of Jun bZIP K258A;Fos bZIP R146A (P05412 252-315 K258A, chain 1 of 2): as the sequence (P05412 252-315 R272A, chain 1 of 2) above, with K7A, A21R counted along it
Chain of Jun bZIP K258A;Fos bZIP R146A (P01100 137-200 R146A, chain 2 of 2): as the sequence (P01100 137-200 K153A, chain 2 of 2) above, with R10A, A17K counted along it
Chain of Jun bZIP K268A;Fos bZIP R146A (P05412 252-315 K268A, chain 1 of 2): as the sequence (P05412 252-315 R272A, chain 1 of 2) above, with K17A, A21R counted along it
Chain of Jun bZIP K268A;Fos bZIP R146A (P01100 137-200 R146A, chain 2 of 2): as the sequence (P01100 137-200 K153A, chain 2 of 2) above, with R10A, A17K counted along it
Chain of Jun bZIP K268A;Fos bZIP K148A (P05412 252-315 K268A, chain 1 of 2): as the sequence (P05412 252-315 R272A, chain 1 of 2) above, with K17A, A21R counted along it
Chain of Jun bZIP K268A;Fos bZIP K148A (P01100 137-200 K148A, chain 2 of 2): as the sequence (P01100 137-200 K153A, chain 2 of 2) above, with K12A, A17K counted along it
Chain of Jun bZIP K268A;Fos bZIP R155A (P05412 252-315 K268A, chain 1 of 2): as the sequence (P05412 252-315 R272A, chain 1 of 2) above, with K17A, A21R counted along it
Chain of Jun bZIP K268A;Fos bZIP R155A (P01100 137-200 R155A, chain 2 of 2): as the sequence (P01100 137-200 K153A, chain 2 of 2) above, with A17K, R19A counted along it
Chain of Jun bZIP K268A;Fos bZIP R158A (P05412 252-315 K268A, chain 1 of 2): as the sequence (P05412 252-315 R272A, chain 1 of 2) above, with K17A, A21R counted along it
Chain of Jun bZIP K268A;Fos bZIP R158A (P01100 137-200 R158A, chain 2 of 2): as the sequence (P01100 137-200 K153A, chain 2 of 2) above, with A17K, R22A counted along it
Chain of Jun bZIP K273A;Fos bZIP K153A (P05412 252-315 K273A, chain 1 of 2): as the sequence (P05412 252-315 R272A, chain 1 of 2) above, with A21R, K22A counted along it
Chain of Jun bZIP K273A;Fos bZIP K153A (P01100 137-200 K153A, chain 2 of 2): as the sequence (P01100 137-200 K153A, chain 2 of 2) above
Chain of Jun-Jun bZIP K273A (P05412 252-315 K273A): as the sequence (P05412 252-315 R272A, chain 1 of 2) above, with A21R, K22A counted along it
Chain of Jun bZIP K273A;Fos bZIP K148A (P05412 252-315 K273A, chain 1 of 2): as the sequence (P05412 252-315 R272A, chain 1 of 2) above, with A21R, K22A counted along it
Chain of Jun bZIP K273A;Fos bZIP K148A (P01100 137-200 K148A, chain 2 of 2): as the sequence (P01100 137-200 K153A, chain 2 of 2) above, with K12A, A17K counted along it
Chain of Jun bZIP R263A;Fos bZIP R155A (P05412 252-315 R263A, chain 1 of 2): as the sequence (P05412 252-315 R272A, chain 1 of 2) above, with R12A, A21R counted along it
Chain of Jun bZIP R263A;Fos bZIP R155A (P01100 137-200 R155A, chain 2 of 2): as the sequence (P01100 137-200 K153A, chain 2 of 2) above, with A17K, R19A counted along it
Chain of Jun bZIP R263A;Fos bZIP K153A (P05412 252-315 R263A, chain 1 of 2): as the sequence (P05412 252-315 R272A, chain 1 of 2) above, with R12A, A21R counted along it
Chain of Jun bZIP R263A;Fos bZIP K153A (P01100 137-200 K153A, chain 2 of 2): as the sequence (P01100 137-200 K153A, chain 2 of 2) above
Chain of Jun bZIP R263A;Fos bZIP R157A (P05412 252-315 R263A, chain 1 of 2): as the sequence (P05412 252-315 R272A, chain 1 of 2) above, with R12A, A21R counted along it
Chain of Jun bZIP R263A;Fos bZIP R157A (P01100 137-200 R157A, chain 2 of 2): as the sequence (P01100 137-200 K153A, chain 2 of 2) above, with A17K, R21A counted along it

B1: TRE duplex 15-mer (dsDNA)
DNA 1: CGCGTGACTCACCCC
DNA 2: GGGGTGAGTCACGCG
In the case of B1, the Kd came out at 3880 ± 90 nM in series [1]; 1150 ± 80 nM in [2]; 960 ± 110 nM in series [3]; 1390 ± 80 nM in series [4]; 430 ± 20 nM in series [5]; 660 ± 10 nM in series [6]. The Kd was 710 ± 20 nM in series [7]; 460 ± 20 nM in series [8]; 4430 ± 190 nM with Jun-Jun bZIP K258A; 760 ± 10 nM in series [9]; 620 ± 40 nM in series [10]; 6520 ± 750 nM with Jun-Jun bZIP K273A. For the same molecule, the Kd in series [11] was 840 ± 50 nM; in series [12], 5380 ± 120 nM; in series [13], 420 ± 20 nM; in series [14], 1740 ± 30 nM; in series [15], 3560 ± 130 nM.

The Kd is the concentration at which binding is half-saturated. Read a high Kd as lower affinity.

(Values after paper PMC3154423.)
